Blank lines part the entries; values can stand above or below the binder they belong to.
Tests used:
[1] = target: T1, cynomolgus GFRα3 on HEK293/MfGFRα3/MfRet/SRE-Luc cells (cynomolgus, UniProt O60609 1-400 (human entry), limits assumed); assay: cell-based or functional assay
T1 chain: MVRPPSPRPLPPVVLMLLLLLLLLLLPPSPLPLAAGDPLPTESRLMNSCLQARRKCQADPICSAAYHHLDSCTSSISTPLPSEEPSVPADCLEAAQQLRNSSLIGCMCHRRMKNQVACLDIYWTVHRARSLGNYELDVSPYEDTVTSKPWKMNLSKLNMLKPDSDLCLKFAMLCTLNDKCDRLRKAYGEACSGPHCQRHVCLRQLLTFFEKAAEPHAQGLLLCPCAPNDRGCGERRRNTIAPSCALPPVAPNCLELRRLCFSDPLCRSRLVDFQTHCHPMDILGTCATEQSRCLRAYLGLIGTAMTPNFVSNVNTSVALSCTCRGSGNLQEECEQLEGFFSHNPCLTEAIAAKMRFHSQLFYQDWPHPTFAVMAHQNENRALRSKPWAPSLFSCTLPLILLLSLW

[2] = target: T2, human GFRα3 expressed with a C-terminal myc-myc-hexahistidine tag (human, UniProt O60609 32-374, biotinylated (sites not given) in ELISA format 2 and in the Octet cross-competition; not in SPR); assay: blocking ELISA 2, biotin-hGFRα3-mmH to coated hARTEMIN-mmH + hRET-10His
T2 construct: also called hGFRα3-mmh; hGFRα3-mmH
Method: (§1) The equilibrated sample solutions were then transferred to the hARTEMIN-mmH-coated plate. […] Absorbance was recorded at 450 nm on a Victor X5 plate reader (Perkin Elmer) to determine the amount of free hGFRα3-hFc in the pre-equilibrated hGFRα3-hFc-antibody solutions that was able to bind to the plate coated with hARTEMIN-mmH. IC₅₀ values, defined as the concentration of antibody required to reduce the signal from a constant concentration of hGFRα3-hFc by 50%, were calculated from the data using Prism software from GraphPad. The absorbance measured at the constant amount of 120 pM hGFRα3-hFc in the absence of anti-GFRα3 antibody is defined as 0% blocking and the absorbance with no added hGFRα3-hFc is defined as 100% blocking. The observed absorbance in the wells containing the highest antibody concentration was used to calculate the maximum blocking percent shown in the table.
In the second ELISA format, the plates, samples and data were processed similarly as for the first format except both hARTEMIN-mmH and human RET with a C-terminal 10 histidine tag (hRET-10His; R&D Systems, #1168-CR/CF) were coated for the blocking ELISA experiment. The 96-well microtiter plates were coated with a mixture of 1.2 ug/ml hARTEMIN-mmH and 6.9 ug/ml hRET-10His proteins in PBS overnight at 4° C. and then blocked with a solution of 0.5% (w/v) BSA. A constant amount of biotinylated human GFRα3 with a C-terminal myc-myc-hexahistidine tag (biotin-hGFRα3-mmH; SEQ ID:370) at 1 nM was pre-mixed with varied amounts of anti-GFRα3 antibodies, ranging from 0 to ˜100 nM in serial dilutions, followed by a 1 hour incubation at RT to allow antibody-biotin-hGFRα3-mmH binding to reach equilibrium. The equilibrated samples were then transferred to the coated plate. After 1 hour of binding, the plate was washed, then the bound biotin-hGFRα3-mmH was detected using HRP conjugated streptavidin (Pierce, #N200), and colorimetric signals were developed using TMB HRP substrates.

[3] = target: T3, human GFRα3 on HEK293/hGFRα3/hRET/SRE-luc cells (human, UniProt O60609 32-382); assay: cell-based or functional assay
T3 sequence: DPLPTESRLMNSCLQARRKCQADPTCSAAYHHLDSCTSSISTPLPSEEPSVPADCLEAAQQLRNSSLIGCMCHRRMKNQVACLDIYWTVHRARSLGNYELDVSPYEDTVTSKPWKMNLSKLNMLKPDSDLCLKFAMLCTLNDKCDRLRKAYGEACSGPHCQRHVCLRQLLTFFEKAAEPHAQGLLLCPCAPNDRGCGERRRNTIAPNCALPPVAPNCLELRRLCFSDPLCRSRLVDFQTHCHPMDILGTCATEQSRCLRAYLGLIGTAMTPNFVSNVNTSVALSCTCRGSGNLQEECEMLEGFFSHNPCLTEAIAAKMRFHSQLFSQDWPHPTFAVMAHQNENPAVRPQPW

[4] = target: T4, human GFRα3 expressed with a C-terminal hFc tag (human); assay: blocking ELISA 1, hGFRα3-hFc to coated hARTEMIN-mmH
T4 construct: also called hGFRα3-hFc
Method: as §1, with “A constant amount of human GFRα3 fused with a C-terminal human Fc tag (hGFRα3-hFc; SEQ ID:371) at 120 pM was pre-mixed with varying amounts of antibodies, ranging from 0 to ˜10 nM in serial dilutions, followed by an 1 hour incubation at room temperature (RT) to allow antibody-hGFRα3-hFc binding to reach equilibrium. The equilibrated” for “The equilibrated”

EC50 of SRE-dependent luciferase activity in HEK293/mfGFRα3/mfRet/SRE-LUC cells [1]: 0.07 nM
B1: recombinant human ARTEMIN protein with a C-terminal myc-myc-hexahistidine tag (ligand)
chain: AGGPGSRARAAGARGCRLRSQLVPVRALGLGHRSDELVRFRFCSGSCRRARSPHDLSLASLLGAGALRPPPGSRPVSQPCCRPTRYEAVSFMDVNSTWRTVDRLSATACGCLGEQKLISEEDLGGEQKLISEEDLHHHHHH

% max blocking [2]: 97%
IC50 [2]: 3.42 nM
IC50 (SRE-luc, HEK293/hGFRα3/hRET cells, 100 pM hARTEMIN-mmH) [3]: 2.3 nM
% max blocking [4]: 70%
IC50 [4]: 0.0829 nM
B2: H4H2234N (antibody, human IgG4, V domains shown)
VH: EVQLLESGGGLVQSGGSLRLSCAASGFSFNNYAMSWVRQAPGKGLEWVSFISGSGGSTYYADSVKGRFTISRDNSKNTLYLQMNSLRVEDTAVFYCAKDRYNYGTFFDYWGQGTLVTVSS
VL: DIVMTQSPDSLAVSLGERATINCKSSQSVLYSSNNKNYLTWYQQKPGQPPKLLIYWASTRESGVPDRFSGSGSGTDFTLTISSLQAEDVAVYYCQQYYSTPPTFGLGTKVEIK
notes: human IgG4 Fc (H4H)

% max blocking [2]: 85%
IC50 [2]: 7.3 nM
IC50 (SRE-luc, HEK293/hGFRα3/hRET cells, 100 pM hARTEMIN-mmH) [3]: 2.4 nM
B3: H4H2207N (antibody, human IgG4, V domains shown)
VH: EVQLVESGGGLVQPGRSLRLSCAASGFTFNDYAMHWVRQAPGKGLEWVSGISWNSGNIGYADSVKGRFTISRDNAKNSLYLQMNSLRAEDTALYFCARDTRMATRPFDYWGQGTLVTVSS
VL: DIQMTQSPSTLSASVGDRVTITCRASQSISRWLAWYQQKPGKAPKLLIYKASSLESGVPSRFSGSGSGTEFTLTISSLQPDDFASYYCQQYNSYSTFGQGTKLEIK
notes: human IgG4 Fc (H4H)

Source: US20140056903A1 (Regeneron, published 2014)
